Data published in patent US20040091878.

Key:
Experiment in all cases: EMSA
[1] = test system: Clone 6 ZFP (6-finger) (artificial); conditions: probe flanks not given; 0.1 mM ZnCl2
[2] = test system: Clone 7 ZFP (6-finger) (artificial); conditions: probe flanks not given; Table 5 prints TAGGTGGCATTGGGTGCTC, listing SEQ 67 tacgtggcattgggtgctc
[3] = test system: Clone 5 ZFP (BCTV whole L1, 6-finger) (artificial); conditions: probe 0.03 fmol per 10 ul; vast majority bound at 3 pM; 0.1 mM ZnCl2

AGTAAGGTAGGAGATGATA (double strand) [Clone 6 target]
Kd [1]: < 3 pM

TACGTGGCATTGGGTGCTC (double strand) [Clone 7 target]
Kd [2]: < 3 pM

TATATATATTGGGTGCTTTGGGTGCTCTATATATA (double strand) [BCTV whole L1 probe]
Kd [3]: < 3 pM
